Reference: article PMC5576923

Assays:
[1] = target: β-Arrestin1 (human (endogenous in Caco-2 and HCT116)) (UniProt P49407); experiment: co-IP; competition in cells: Caco-2 or HCT116 cells treated with 10 μM pep24 or 10 μM scrambled control peptide for 24 hr, then β-Arrestin1 immunoprecipitated and ARHGAP21 blotted
[2] = target: β-Arrestin1 (human (endogenous in Caco-2 and HCT116)) (UniProt P49407); experiment: proximity ligation; Duolink II red kit on fixed, permeabilised cells; PTEN-/- HCT116 cells transfected 24 hr with GFP-tagged EV or PTEN constructs, HCT116 cells as positive control; signal as AI units, n = 35 cells per condition in triplicate

Sequence of β-Arrestin1 (human (endogenous in Caco-2 and HCT116)) (P49407 whole entry): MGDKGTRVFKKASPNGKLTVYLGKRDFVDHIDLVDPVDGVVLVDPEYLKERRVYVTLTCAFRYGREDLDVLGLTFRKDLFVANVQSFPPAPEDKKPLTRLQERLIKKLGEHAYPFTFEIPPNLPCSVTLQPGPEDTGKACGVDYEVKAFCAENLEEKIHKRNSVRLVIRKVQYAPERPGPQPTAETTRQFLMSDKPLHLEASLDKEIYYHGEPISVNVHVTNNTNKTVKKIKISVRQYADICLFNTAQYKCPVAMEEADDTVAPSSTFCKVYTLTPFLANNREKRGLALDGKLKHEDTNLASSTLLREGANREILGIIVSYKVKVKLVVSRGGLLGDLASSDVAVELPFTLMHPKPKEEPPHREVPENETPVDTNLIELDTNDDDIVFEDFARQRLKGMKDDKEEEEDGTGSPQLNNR
Sequence of cell permeant β-Arrestin1-ARHGAP21 binding disruptor peptide pep24 (Q5T5U3 1331-1355): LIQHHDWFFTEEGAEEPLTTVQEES

Row | fold change of β-Arrestin1-associated ARHGAP21 (ADU), pep24 vs control peptide, Caco-2 cells [1] | fold change of β-Arrestin1-associated ARHGAP21 (ADU), pep24 vs control peptide, HCT116 cells [1] | PLA interaction AI [2] | Substance
1 | 0.63 fold change | 0.39 fold change | – | cell permeant β-Arrestin1-ARHGAP21 binding disruptor peptide pep24 (from UniProt Q5T5U3 1331-1355)
2 | – | – | 38.3 AI units | GFP-labeled isolated PTEN C2 domain (domain or fragment)
